Sequences and labels used below:
B1: NCS.1.1 (human IgG1) (antibody, V domains shown)
VH: QVQLQESGPRLVKPSETLSLTCSVSGESISSGGYYWTWIRQHPGKGLEWIGNIFDTGSTDYSPSLKTRLTISIDTSKNQFYLRLNSATAADTAVYYCARVGFSLETDRPYYLGLDVWGQGTTVTVSS
VL: DIVMTQSPLSLPVTPGEPASISCRSSQSLLHSNGYTYLDWYLQKPGQSPQLLISFTSNRASGVPDRFSGSGSGTYFTLKISRVEAEDVGVYYCMQAVQTPWTFGQGTKVEIK
B2: NCS.1.3 (human IgG1) (antibody, V domains shown)
VH: B1 VH with N85T
VL: B1 VL with S10T, S54Y, T56A, T99S
B3: NCS.1 (human IgG1) (antibody, V domains shown)
VH: B1 VH with Q5P, D60H, F102Y, L112F
VL: B1 VL with S54Y, F55L, T56A

Where a chain is given by its changes, count along the chain named.

In the experiment the target is unmodified NA of A/Vietnam/1203/2004 (VN04, H5N1) (Influenza A virus A/Vietnam/1203/2004 …, UniProt Q6DPL2, strain). Briefly: ELISA. The conditions noted are these: both partners purified. A general note: In an ELISA, binding on a coated surface is turned into a signal by an enzyme label.
Turning to B1, the binding result is listed as “binds”.

Turning to B2, the binding result is recorded as “binds”. For the molecule B3, the binding result was “binds”.

For the origin of these results see paper PMC12316982 (Nature Communications, 2025).
